From patent US20110190142A1, “DETERMINATION OF RENIN-PRORENIN RECEPTOR ACTIVITY” (Charite- Universitatsmedizin Berlin, priority 2006, published 2011) come the findings set out here.

Data set [1] concerns renin/prorenin receptor (RER). In words: PLZF translocation, fractionated extraction of cytosolic and nuclear proteins and Western blot. The format is cell-based, human. The conditions noted are these: HEK293 cells, c-myc-tagged PLZF, 10 nM renin. The procedure: Cytosolic and membrane proteins were isolated using the ProteoExtract Subcellular Proteome Extraction Kit (Calbiochem, Darmstadt, Germany). A fractionated extraction of cytosolic and nuclear proteins was performed as described previously (Funke-Kaiser et al., 2003a). Protein concentrations were determined using the DC Protein Assay (Bio-Rad, München, Germany). Cytosolic, membrane and nuclear fractions were controlled by Western blot using antibodies against Akt (mouse monoclonal, 5G3; 1:1,000; Cell Signalling, Danvers, Mass., USA), angiotensin AT1 receptor (rabbit polyclonal, sc-579; 1:2,000; Santa Cruz Biotechnology, Heidelberg, Germany) and TBP (rabbit polyclonal, sc-204; 1:1,000; Santa Cruz Biotechnology), respectively.
For PLZF translocation experiments HEK293 cells were seeded on day 1 in 6-well plates. 250 ng of pCEP4-PLZF-myc expression vector per well were transfected on day 2 at 40-60% confluency using GeneJuice (Merck Biosciences, Bad Soden, Germany) according to the manufacturer's protocol. […] Chemoluminescence was detected with ECL (Amersham, München, Germany), and subsequent exposition to Hyperfilm (Amersham).

The target of data set [2] is endogenous human RER of HEK293 cells (human) (UniProt O75787). The experiment in a line: cell-based or functional assay.
endogenous human RER of HEK293 cells (human), sequence (O75787 17-350): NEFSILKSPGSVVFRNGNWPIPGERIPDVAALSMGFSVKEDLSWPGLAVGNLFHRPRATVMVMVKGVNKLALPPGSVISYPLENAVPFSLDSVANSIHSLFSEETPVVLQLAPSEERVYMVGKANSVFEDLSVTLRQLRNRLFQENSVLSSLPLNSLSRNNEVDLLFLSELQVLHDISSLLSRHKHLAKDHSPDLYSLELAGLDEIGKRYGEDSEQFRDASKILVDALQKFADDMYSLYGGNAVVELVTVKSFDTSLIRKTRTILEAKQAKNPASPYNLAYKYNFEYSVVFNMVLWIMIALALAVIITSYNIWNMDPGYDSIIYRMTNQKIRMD
The test system of data set [3] is renin/prorenin receptor (RER). The experiment in a line: RER promoter luciferase reporter assay under renin stimulation. The format is cell-based, human. The conditions noted are these: PLZF-overexpressing HEK293 cells, renin vs all controls. The protocol:
(§1) The indicated cell types were seeded on day 1 in 12-well plates. 100 ng of indicated pGL3-basic constructs (encoding firefly luciferase) and 20 ng of phRL-null plasmid (encoding humanized Renilla luciferase for standardization of promoter activity; Promega) per well were transfected on day 2 at 60-80% confluency using GeneJuice (Merck Biosciences, Bad Soden, Germany) according to the manufacturer's protocol. Cells were harvested 48 hours after transfection using Passive Lysis Buffer (Promega). Reporter activities were measured in a Pharmingen Monolight 3010 luminometer (BD Biosciences, Erembodegem, Belgium) using the Dual-Luciferase Reporter Assay System (Promega). Promoter activity is expressed as relative luciferase activity (RLA) (Funke-Kaiser et al., 2003a). RLA data represent the mean±standard deviation of at least three single, parallel transfection experiments.
(§2) HEK293 cells were seeded in 24-well plates and transfected with either 100 ng of pCEP4-PLZF-myc expression vector, 50 ng of indicated pGL3-basic construct and 10 ng of phRL-null plasmid (for luciferase assay), or 100 ng of pCEP4-PLZF-myc alone (for PCR experiments) per well as described above. siRNA transfection, renin stimulation and determination of reporter activity were performed as described above, except for an exceeded renin stimulation period of 3 hours.

Data set [4] has as its system HEK293 cells. The experiment in a line: Number of viable cells (ATP concentration). In kind it is cell-based, human. The conditions noted are these: HEK293 cells, 5 nM, 24 hours. The procedure:
(§3) For all cell culture studies immortalized human epithelial kidney cells (HEK293 cells) were used. […] Additional inhibition with 1 μM aliskiren was performed as indicated. 1 hour after pre-treatment with losartan±aliskiren cells were stimulated with either 5 nM renin, 5 nM prorenin, or the respective vehicle. Cells were harvested for mRNA expression analysis or determination of viable cell number and apoptosis after 3 or 24 hours, respectively. These experimental procedures have been described in detail previously (Schefe et al., 2006). All experiments were performed in independent triplicates.

Data set [5] relates to renin/prorenin receptor (RER). The experiment in a line: RER mRNA by quantitative real-time PCR after renin/prorenin stimulation of HEK293 cells. In kind it is cell-based, human. The protocol: as §2
(§4) RNA isolation and cDNA synthesis were performed as described above. qPCR was performed applying a SYBR Green I reaction mix and run on a Stratagene Mx3000P (Stratagene, La Jolla, Calif., USA) using the following primers: […]
(§5) Data represents the mean expression level±standard deviation (standardized to 18S rRNA expression) calculated according to the ddCT method of at least three independent measurements. Equality of PCR efficiencies has been verified applying the program LinRegPCR (Ramakers et al. 2003) and ANOVA testing.
as §3
For orientation: Quantitative PCR measures a nucleic acid by following its amplification.

Data set [6] concerns renin/prorenin receptor (RER). In words: PI3K-p85α promoter luciferase reporter assay under renin stimulation. The format is cell-based, human. The conditions noted are these: PLZF-overexpressing HEK293 cells, renin vs control. The procedure: as §1, §2
On the technique in general: Reporter assays use an easily measured gene product as a stand-in for the process of interest.

The subject of data set [7] is renin/prorenin receptor (RER). The experiment in a line: PI3K-p85α mRNA by quantitative real-time PCR after renin/prorenin stimulation of HEK293 cells. The format is cell-based, human. The protocol:
as §2, §4, §5, §3

Data set [8] has as its system HEK293 cells. The experiment in a line: Caspase 3/7 activity as a measure of apoptosis. In kind it is cell-based, human. The conditions noted are these: HEK293 cells, 5 nM, 24 hours. The protocol: as §3
Where [9] appears, read: HEK293 cells, 5 nM, 3 hours, 1 μM losartan pre-treatment.

B1: human recombinant renin (mammalian expression) (ligand, UniProt P00797 67-406, looked up)
chain: LTLGNTTSSVILTNYMDTQYYGEIGIGTPPQTFKVVFDTGSSNVWVPSSKCSRLYTACVYHKLFDASDSSSYKHNGTELTLRYSTGTVSGFLSQDIITVGGITVTQMFGEVTEMPALPFMLAEFDGVVGMGFIEQAIGRVTPIFDNIISQGVLKEDVFSFYYNRDSENSQSLGGQIVLGGSDPQHYEGNFHYINLIKTGVWQIQMKGVSVGSSTLLCEDGCLALVDTGASYISGSTSSIEKLMEALGAKKRLFDYVVKCNEGPTLPDISFHLGGKEYTLTSADYVFQESYSSKKLCTLAIHAMDIPPPTGPTWALGATFIRKFYTEFDRRNNRIGFALAR
Consider B1, for which the “translocation of PLZF from the cytoplasm to the nucleus” value in data set [1] is “clear increase in nuclear PLZF”. Moreover, in data set [2], the PI3K-p85α mRNA (real-time PCR), HEK293 cells with PLZF overexpression turned out to be 105 % increase; the PI3K-p85α mRNA (real-time PCR), HEK293 cells without PLZF overexpression was determined as 30.2 % increase; the PI3K-p85α mRNA after 3 hours, 5 nM renin, HEK293 cells (% of vehicle control) is 172; the PI3K-p85α promoter activity (luciferase reporter) in PLZF-overexpressing HEK293 cells is 45 % increase. Moreover, in data set [2], the PLZF recruitment to the RER promoter (ChIP with real-time PCR) in HEK293 cells is 6 fold; the RER mRNA (real-time PCR) in HEK293 cells after renin stimulation combined with PLZF transfection was 45.4 % of control; the RER mRNA (real-time PCR) in HEK293 cells after renin stimulation, without PLZF overexpression was 80.6 % of control; the RER mRNA after 3 hours, 5 nM renin, HEK293 cells (% of vehicle control) came out at 59.2. In data set [2], the RER promoter activity (luciferase reporter) in PLZF-overexpressing HEK293 cells turned out to be 30 % decrease and the caspase 3/7 activity after 24 hours, 5 nM renin, HEK293 cells turned out to be 31 % decrease. For the same molecule, the “decrease in the activity of a wild type RER promoter” value in data set [3] is recorded as “about 30%”. Further, the “increase of viable cell number compared to vehicle” value in data set [4] is given as 103.6%. The “RER mRNA (first column set to 100%)” value in data set [5] (HEK293 cells with PLZF overexpression (pCEP4-PLZF) plus renin stimulation) came out at 45.4±4.7%. For the same molecule, in data set [5] (HEK293 cells without PLZF overexpression, renin stimulation vs vehicle), the “RER mRNA (first column set to 100%)” value stood at 80.6±3.3%. The “RER mRNA, % of vehicle control” value in data set [5] (setting [9]) turned out to be 59.2%. Moreover, the “increase in PI3K-p85α promoter activity” value in data set [6] was found to be 45%. Also, the “increase of PI3K-p85α mRNA relative to vehicle control” value in data set [7] (HEK293 cells with PLZF overexpression) is 105.2±6.74%. In addition, in data set [7] (HEK293 cells without PLZF overexpression), the “increase of PI3K-p85α mRNA relative to vehicle control” value worked out at 30.2±7.9%. For the same molecule, the “PI3K-p85α mRNA, % of vehicle control” value in data set [7] (setting [9]) is given as 171.8%. Further, the “reduction of caspase 3/7 activity” value in data set [8] is on record as 31%.
